Target: acetylcholine receptor
Assay: SPR, peptide at 10 µM on acetylcholine receptor

Row | Binder | Binding affinity (RU)
1 | KWRTR [5mer-49] | 62
2 | KQVYR [5mer-349] | 50
3 | KLLCR [5mer-50] | 63
4 | KSYYK [5mer-350] | 59
5 | RSLQR [5mer-51] | 70
6 | KSFSK [5mer-351] | 75
7 | RQQYK [5mer-52] | 50
8 | RLVRK [5mer-352] | 76
9 | RLVTR [5mer-53] | 50
10 | KSQLK [5mer-353] | 59
11 | KWLQR [5mer-54] | 66
12 | RSQTR [5mer-354] | 64
13 | RRFSR [5mer-55] | 58
14 | KLLYR [5mer-355] | 87
15 | KRFCK [5mer-56] | 59
16 | KQVLR [5mer-356] | 65
17 | KQLYR [5mer-57] | 73
18 | RGFRK [5mer-357] | 54
19 | KWVSK [5mer-58] | 75
20 | KVRSK [5mer-358] | 50
21 | KLQYR [5mer-59] | 68
22 | KRFQK [5mer-359] | 79
23 | RLFTK [5mer-60] | 86

Target: acetylcholine receptor
Assay: SPR, AchR immobilised, peptide 10 uM

Row | Binder | Binding affinity (RU)
24 | RRKWGR [6mer-1-1077] | 24
25 | RRPDIK [6mer-1-1078] | 25
26 | RKHPVK [6mer-1-1079] | 25
27 | KKHNMR [6mer-1-1080] | 38
28 | KRPSNK [6mer-1-1081] | 23
29 | KKTCDR [6mer-1-1082] | 37
30 | KKNAVR [6mer-1-1083] | 36
31 | KKCCPK [6mer-1-1084] | 25
32 | KREAMK [6mer-1-1085] | 33
33 | RKEANK [6mer-1-1086] | 22
34 | KKPWKR [6mer-1-1087] | 27
35 | RRETHK [6mer-1-1088] | 38
36 | RKFTKK [6mer-1-1089] | 31
37 | KKTMWR [6mer-1-1090] | 27
38 | KKDDGK [6mer-1-1091] | 32
39 | RKYHDK [6mer-1-1092] | 43
40 | RRKSDR [6mer-1-1093] | 37
41 | RRMAIK [6mer-1-1094] | 42
42 | RRCHVK [6mer-1-1095] | 27
43 | RKPEPR [6mer-1-1096] | 23
44 | RKNCNK [6mer-1-1097] | 39
45 | RKKDMR [6mer-1-1098] | 42
46 | RRKTDR [6mer-1-1099] | 24
47 | KRMSHK [6mer-1-1100] | 43
48 | RRECDK [6mer-1-1101] | 37
49 | KRFTKK [6mer-1-1102] | 35
50 | KREDNK [6mer-1-1103] | 27
51 | KRNSAR [6mer-1-1104] | 28

Row | Binder | Binding affinity (RU)
52 | RRCTAR [6mer-1-1105] | 40
53 | KRFMNK [6mer-1-1106] | 39
54 | KRCPPR [6mer-1-1107] | 36
55 | RRAHNK [6mer-1-1108] | 43
56 | KRCCVR [6mer-1-1109] | 41
57 | RKFTER [6mer-1-1110] | 24
58 | RRASPR [6mer-1-1111] | 38
59 | KKDPWK [6mer-1-1112] | 27
60 | RRCTMK [6mer-1-1113] | 28
61 | KKFNFK [6mer-1-1114] | 38
62 | RKCAFR [6mer-1-1115] | 43
63 | KRHPFR [6mer-1-1116] | 35
64 | KKEWFR [6mer-1-1117] | 40
65 | KKDTIK [6mer-1-1118] | 33
66 | KRIWVR [6mer-1-1119] | 31
67 | RRKEAK [6mer-1-1120] | 22
68 | KKTWWR [6mer-1-1121] | 28
69 | RRTMGR [6mer-1-1122] | 33
70 | RRDNVK [6mer-1-1123] | 41
71 | KKDEIR [6mer-1-1124] | 21
72 | KKPTDR [6mer-1-1125] | 26
73 | RRHCDK [6mer-1-1126] | 41
74 | RKMMMK [6mer-1-1127] | 34
75 | KKKKPK [6mer-1-1128] | 39
76 | RKDHAR [6mer-1-1129] | 39
77 | RKATFR [6mer-1-1130] | 31
78 | RKDNIK [6mer-1-1131] | 42
